Experimental data reported in patent US20230192861A1.

Tests used:
[1] = molecular target: human B7-H3 expressed on the surface of human cancer cell lines (human) (UniProt Q5ZPR3); experiment: FACS on HCC1954 cells, 10 ug/ml
[2] = molecular target: human B7-H3 expressed on the surface of human cancer cell lines (human) (UniProt Q5ZPR3); experiment: FACS on A-498 cells, 10 ug/ml
[3] = molecular target: human B7-H3 expressed on the surface of human cancer cell lines (human) (UniProt Q5ZPR3); experiment: FACS on HCT116 cells, 10 ug/ml
[4] = molecular target: human B7-H3 expressed on the surface of human cancer cell lines (human) (UniProt Q5ZPR3); experiment: FACS on Hela cells, 10 ug/ml
[5] = molecular target: human B7-H3 expressed on the surface of human cancer cell lines (human) (UniProt Q5ZPR3); experiment: FACS on JeKo-1 cells, 10 ug/ml
[6] = molecular target: human B7-H3 expressed on the surface of human cancer cell lines (human) (UniProt Q5ZPR3); experiment: FACS on MDA-MB-468 cells, 10 ug/ml
[7] = molecular target: human B7-H3 expressed on the surface of human cancer cell lines (human) (UniProt Q5ZPR3); experiment: FACS on MCF-7 cells, 10 ug/ml
[8] = molecular target: human B7-H3 expressed on the surface of human cancer cell lines (human) (UniProt Q5ZPR3); experiment: FACS on HT29 cells, 10 ug/ml
[9] = molecular target: human B7-H3 expressed on the surface of human cancer cell lines (human) (UniProt Q5ZPR3); experiment: FACS on 786-0 cells, 10 ug/ml
[10] = molecular target: human B7-H3 expressed on the surface of human cancer cell lines (human) (UniProt Q5ZPR3); experiment: FACS on A2780 cells, 10 ug/ml
[11] = molecular target: human B7-H3 expressed on the surface of human cancer cell lines (human) (UniProt Q5ZPR3); experiment: FACS on SKOV-3 cells, 10 ug/ml
[12] = molecular target: human B7-H3 expressed on the surface of human cancer cell lines (human) (UniProt Q5ZPR3); experiment: FACS on OVCAR-3 cells, 10 ug/ml
[13] = molecular target: human B7-H3 expressed on the surface of human cancer cell lines (human) (UniProt Q5ZPR3); experiment: FACS on NCI-N87 cells, 10 ug/ml
[14] = molecular target: human B7-H3 expressed on the surface of human cancer cell lines (human) (UniProt Q5ZPR3); experiment: FACS on Calu-6 cells, 10 ug/ml
[15] = molecular target: human B7-H3 expressed on the surface of human cancer cell lines (human) (UniProt Q5ZPR3); experiment: FACS on MDA-MB-231 cells, 10 ug/ml
[16] = molecular target: human B7-H3 expressed on the surface of human cancer cell lines (human) (UniProt Q5ZPR3); experiment: FACS on DLD-1 cells, 10 ug/ml
[17] = molecular target: human B7-H3 expressed on the surface of human cancer cell lines (human) (UniProt Q5ZPR3); experiment: FACS on Panc-1 cells, 10 ug/ml
[18] = molecular target: human B7-H3 expressed on the surface of human cancer cell lines (human) (UniProt Q5ZPR3); experiment: FACS on HCC1187 cells, 10 ug/ml

Sequence of human B7-H3 expressed on the surface of human cancer cell lines (human) (Q5ZPR3 29-534): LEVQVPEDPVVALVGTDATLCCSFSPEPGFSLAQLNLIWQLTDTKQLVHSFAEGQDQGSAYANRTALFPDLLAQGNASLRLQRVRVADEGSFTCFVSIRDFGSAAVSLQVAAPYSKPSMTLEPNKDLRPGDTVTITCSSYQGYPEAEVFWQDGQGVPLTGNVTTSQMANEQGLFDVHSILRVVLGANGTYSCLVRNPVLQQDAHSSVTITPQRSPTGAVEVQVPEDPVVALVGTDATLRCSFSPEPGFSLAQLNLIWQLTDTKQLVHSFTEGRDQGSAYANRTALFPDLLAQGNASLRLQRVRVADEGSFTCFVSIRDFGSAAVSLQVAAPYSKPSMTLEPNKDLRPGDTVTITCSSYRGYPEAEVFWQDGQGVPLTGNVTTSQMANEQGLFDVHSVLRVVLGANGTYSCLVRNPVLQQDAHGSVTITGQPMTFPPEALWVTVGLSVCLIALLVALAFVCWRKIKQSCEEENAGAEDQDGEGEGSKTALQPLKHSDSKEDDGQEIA

MFI Ratio [1]: 14
MFI Ratio [2]: 24
MFI Ratio [3]: 5.9
MFI Ratio [4]: 23.5
MFI Ratio [5]: 2.9
MFI Ratio [6]: 8.6
MFI Ratio [7]: 78
MFI Ratio [8]: 8.9
MFI Ratio [9]: 20
MFI Ratio [10]: 13.1
MFI Ratio [11]: 11.9
MFI Ratio [12]: 13.7
MFI Ratio [13]: 12.8
MFI Ratio [14]: 23.2
MFI Ratio [15]: 5.4
MFI Ratio [16]: 10.7
MFI Ratio [17]: 9
MFI Ratio [18]: 14.9
B1: 84D (comparison anti-B7-H3 antibody, Enoblituzumab variable regions) (antibody, part only; not given: constant regions, V domains shown, not shown: another chain or arm of the molecule)
VH: EVQLVESGGGLVQPGGSLRLSCAASGFTFSSFGMHWVRQAPGKGLEWVAYISSDSSAIYYADTVKGRFTISRDNAKNSLYLQMNSLRDEDTAVYYCGRGRENIYYGSRLDYWGQGTTVTVSS
VL: DIQLTQSPSFLSASVGDRVTITCKASQNVDTNVAWYQQKPGKAPKALIYSASYRYSGVPSRFSGSGSGTDFTLTISSLQPEDFATYYCQQYNNYPFTFGQGTKLEIK
